Target: CBLB (UniProt Q3TTA7)
Test: anti-CBLB IP, dectin-1 blot
Conditions: reference: wild-type Flag-dectin-1; sites Y15

dectin-1 (from UniProt Q6QLQ4) Flag-dectin-1 Y15F
binding against the reference: lost

— publication PMC4975523
